In the supplement of paper PMC10567573:

B1: WEE1 (parent)
chain: INPFTPDSLLLHSSGQCRRRKRTY

Variants of: B1
Experiment: protein stability index of a GFP-peptide fusion (GPS, HEK-293T) (PSI 1-6); higher = more stable
Conditions: c terminus: a fixed tail appended
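Note: lentivirally expressed fusions sorted by FACS into six bins by GFP to DsRed ratio, PSI derived from sequencing read proportions per bin multiplied by bin number.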

**Q.** With INPFTPDSLLLHSSGQCRTRKRTY [R19T] as the variant, how does the protein stability index read?
**A.** 2.78

**Q.** Which protein stability index does the source give for INPFTPDSLLLHSSGQCRVRKRTY [R19V] here?
**A.** 2.69

**Q.** With INPFTPDSLLLHSSGQCRWRKRTY [R19W] as the variant, how does the protein stability index read?
**A.** 2.66

**Q.** With INPFTPDSLLLHSSGQCRYRKRTY [R19Y] as the variant, how does the protein stability index read?
**A.** 2.83

**Q.** For INPFTPDSLLLHSSGQCRRAKRTY [R20A], which protein stability index is on record?
**A.** 3.08

**Q.** Which protein stability index does the source give for INPFTPDSLLLHSSGQCRRCKRTY [R20C] here?
**A.** 2.5

**Q.** Which protein stability index does the source give for INPFTPDSLLLHSSGQCRRDKRTY [R20D] here?
**A.** 3.12

**Q.** Which protein stability index does the source give for INPFTPDSLLLHSSGQCRREKRTY [R20E] here?
**A.** 3.15

**Q.** With INPFTPDSLLLHSSGQCRRFKRTY [R20F] as the variant, how does the protein stability index read?
**A.** 2.48

**Q.** For INPFTPDSLLLHSSGQCRRGKRTY [R20G], which protein stability index is on record?
**A.** 3.41

**Q.** For INPFTPDSLLLHSSGQCRRHKRTY [R20H], which protein stability index is on record?
**A.** 3.62

**Q.** For INPFTPDSLLLHSSGQCRRIKRTY [R20I], which protein stability index is on record?
**A.** 2.95

**Q.** Which protein stability index does the source give for INPFTPDSLLLHSSGQCRRKKRTY [R20K] here?
**A.** 3.23

**Q.** For INPFTPDSLLLHSSGQCRRLKRTY [R20L], which protein stability index is on record?
**A.** 2.75

**Q.** For INPFTPDSLLLHSSGQCRRMKRTY [R20M], which protein stability index is on record?
**A.** 2.85

**Q.** Which protein stability index does the source give for INPFTPDSLLLHSSGQCRRNKRTY [R20N] here?
**A.** 3.45

**Q.** For INPFTPDSLLLHSSGQCRRPKRTY [R20P], which protein stability index is on record?
**A.** 3.12

**Q.** For INPFTPDSLLLHSSGQCRRQKRTY [R20Q], which protein stability index is on record?
**A.** 2.81

**Q.** For INPFTPDSLLLHSSGQCRRSKRTY [R20S], which protein stability index is on record?
**A.** 2.97

**Q.** For INPFTPDSLLLHSSGQCRRTKRTY [R20T], which protein stability index is on record?
**A.** 3.32

**Q.** Which protein stability index does the source give for INPFTPDSLLLHSSGQCRRVKRTY [R20V] here?
**A.** 2.94

**Q.** With INPFTPDSLLLHSSGQCRRWKRTY [R20W] as the variant, how does the protein stability index read?
**A.** 1.82

**Q.** Which protein stability index does the source give for INPFTPDSLLLHSSGQCRRYKRTY [R20Y] here?
**A.** 2.61

**Q.** For INPFTPDSLLLHSSGQCRRRARTY [K21A], which protein stability index is on record?
**A.** 3.77

**Q.** For INPFTPDSLLLHSSGQCRRRCRTY [K21C], which protein stability index is on record?
**A.** 2.02

**Q.** With INPFTPDSLLLHSSGQCRRRDRTY [K21D] as the variant, how does the protein stability index read?
**A.** 2.9

**Q.** For INPFTPDSLLLHSSGQCRRRERTY [K21E], which protein stability index is on record?
**A.** 3.16

**Q.** With INPFTPDSLLLHSSGQCRRRFRTY [K21F] as the variant, how does the protein stability index read?
**A.** 2.42

**Q.** With INPFTPDSLLLHSSGQCRRRGRTY [K21G] as the variant, how does the protein stability index read?
**A.** 3.58

**Q.** With INPFTPDSLLLHSSGQCRRRHRTY [K21H] as the variant, how does the protein stability index read?
**A.** 3.38

**Q.** For INPFTPDSLLLHSSGQCRRRIRTY [K21I], which protein stability index is on record?
**A.** 3

**Q.** For INPFTPDSLLLHSSGQCRRRLRTY [K21L], which protein stability index is on record?
**A.** 2.72

**Q.** For INPFTPDSLLLHSSGQCRRRMRTY [K21M], which protein stability index is on record?
**A.** 3.25

**Q.** With INPFTPDSLLLHSSGQCRRRNRTY [K21N] as the variant, how does the protein stability index read?
**A.** 3.59

**Q.** With INPFTPDSLLLHSSGQCRRRPRTY [K21P] as the variant, how does the protein stability index read?
**A.** 3.08

**Q.** For INPFTPDSLLLHSSGQCRRRQRTY [K21Q], which protein stability index is on record?
**A.** 2.46

**Q.** Which protein stability index does the source give for INPFTPDSLLLHSSGQCRRRRRTY [K21R] here?
**A.** 3.11

**Q.** For INPFTPDSLLLHSSGQCRRRSRTY [K21S], which protein stability index is on record?
**A.** 3.18

**Q.** With INPFTPDSLLLHSSGQCRRRTRTY [K21T] as the variant, how does the protein stability index read?
**A.** 2.83

**Q.** Which protein stability index does the source give for INPFTPDSLLLHSSGQCRRRVRTY [K21V] here?
**A.** 3.16

**Q.** For INPFTPDSLLLHSSGQCRRRWRTY [K21W], which protein stability index is on record?
**A.** 2.4

**Q.** With INPFTPDSLLLHSSGQCRRRYRTY [K21Y] as the variant, how does the protein stability index read?
**A.** 2.48

**Q.** For INPFTPDSLLLHSSGQCRRRKATY [R22A], which protein stability index is on record?
**A.** 3.67

**Q.** For INPFTPDSLLLHSSGQCRRRKCTY [R22C], which protein stability index is on record?
**A.** 3.17

**Q.** With INPFTPDSLLLHSSGQCRRRKDTY [R22D] as the variant, how does the protein stability index read?
**A.** 3.37

**Q.** With INPFTPDSLLLHSSGQCRRRKETY [R22E] as the variant, how does the protein stability index read?
**A.** 3.1

**Q.** For INPFTPDSLLLHSSGQCRRRKFTY [R22F], which protein stability index is on record?
**A.** 2.71
